Consider six molecules from article PMC6673701, “Structure of Myosin VI/Tom1 complex reveals a cargo recognition mode of Myosin VI for tethering” (Nature Communications, 2019).

The chains are these.
B1: Tom1(437–463), Myosin VI-binding motif (domain or fragment, human, UniProt O60784-2 437-463, looked up)
chain: GVTSEGKFDKFLEERAKAADRLPNLSS
notes: monomer by light scattering and ultracentrifugation; also called Tom1 MBM; source: E. coli BL21 (DE3), purified (Ni-NTA, SEC); not shown: thioredoxin, N-terminal, cleaved; His6, N-terminal, cleaved
B2: Tom1(215–493) (domain or fragment, human, UniProt O60784-2 215-493, looked up)
chain: EQIGKLRSELEMVSGNVRVMSEMLTELVPTQAEPADLELLQELNRTCRAMQQRVLELIPQIANEQLTEELLIVNDNLNNVFLRHERFERFRTGQTTKAPSEAEPAADLIDMGPDPAATGNLSSQLAGMNLGSSSVRAGLQSLEASGRLEDEFDMFALTRGSSLADQRKEVKYEAPQATDGLAGALDARQQSTGAIPVTQACLMEDIEQWLSTDVGNDAEEPKGVTSEGKFDKFLEERAKAADRLPNLSSPSAEGPPGPPSGPAPRKKTQEKDDDMLFAL
notes: source: E. coli BL21 (DE3), purified (Ni-NTA, SEC); not shown: thioredoxin, N-terminal, cleaved; His6, N-terminal, cleaved
B3: Tom1(392–493) (domain or fragment, human, UniProt O60784-2 392-493, looked up)
chain: TDGLAGALDARQQSTGAIPVTQACLMEDIEQWLSTDVGNDAEEPKGVTSEGKFDKFLEERAKAADRLPNLSSPSAEGPPGPPSGPAPRKKTQEKDDDMLFAL
notes: 15N-labelled in one NMR titration; source: E. coli BL21 (DE3), purified (Ni-NTA, SEC); not shown: thioredoxin, N-terminal, cleaved; His6, N-terminal, cleaved
B4: Tom1(392–463) (domain or fragment, human, UniProt O60784-2 392-463, looked up)
chain: TDGLAGALDARQQSTGAIPVTQACLMEDIEQWLSTDVGNDAEEPKGVTSEGKFDKFLEERAKAADRLPNLSS
notes: as for B3
B5: Tom1(437–493) (domain or fragment, human, UniProt O60784-2 437-493, looked up)
chain: GVTSEGKFDKFLEERAKAADRLPNLSSPSAEGPPGPPSGPAPRKKTQEKDDDMLFAL
notes: as for B2
B6: C-terminal cargo-binding domain (CBD) of Myosin VI (residues 1157–1285) (domain or fragment, human, UniProt Q9UM54-1 1157-1285, looked up)
chain: ARQREIEMNRQQRFFRIPFIRPADQYKDPQSKKKGWWYAHFDGPWIARQMELHPDKPPILLVAGKDDMEMCELNLEETGLTRKRGAEILPRQFEEIWERCGGIQYLQNAIESRQARPTYATAMLQSLLK
notes: monomer by light scattering and ultracentrifugation; 15N-labelled in some NMR experiments; also called C-terminal CBD of Myosin VI; source: E. coli BL21 (DE3), purified (Ni-NTA, SEC); not shown: thioredoxin, N-terminal, cleaved; His6, N-terminal, cleaved

One assay deals with B6. In words: ITC; 25 °C, 20 mM Tris pH 7.9, 100 mM NaCl, 1 mM DTT; 50 µM protein in the cell, 500 µM in the syringe; one-site binding model. As to conditions: both partners purified. In general terms: ITC needs no label: the signal is the heat of the interaction.
On to B1, for which the affinity, expressed as Kd, was 670 nM; the dH is -14.9 ± 0.1 kcal/mol; the stoichiometry N (in general, the number of molecules, sites or subunits per partner or assembly) was 0.74 ± 0.01.
As to B2, the dH is -7.61 ± 0.09 kcal/mol and the “stoichiometry N” value stood at 1.44 ± 0.01.
Turning to B3, the Kd (commonly the concentration at which binding is half-saturated) amounted to 930 nM, the dH is -9.9 ± 0.11 kcal/mol and the “stoichiometry N” value came out at 1.12 ± 0.01.
The like results for B4 were, in that order, 760 nM, -10.6 ± 0.16 kcal/mol and 0.91 ± 0.01.
Take B5: the dissociation constant (Kd) was found to be 760 nM, the dH was -12.7 ± 0.11 kcal/mol and the “stoichiometry N” value amounted to 0.83 ± 0.01.

In another assay the target is B2. The assay is described as above. The following applies: both partners purified.
Regarding B6, the Kd is 2130 nM. In other words, the single-digit micromolar range.

In the next assay the target is B6. Description: SEC + SEC-MALS + AUC; analytical gel filtration, multi-angle light scattering (20 mM Tris-HCl pH 7.9, 100 mM NaCl, 1 mM DTT) and sedimentation velocity (20 °C) of each protein alone and of the complex. The following applies: both partners purified. A general note: In gel filtration, larger molecules generally elute earlier.
With B1, the “stoichiometry N” value stood at 1.
